According to the RNAGym collection of RNA variant scans (doi:10.1101/gr.219683.116):

B1: mRNA-splicing (parent)
chain: AGUUGCUGCUGGGAGCUCCAGCACAGUGAAAUGGACAGAAGGGCAGAGCAA

Variants of: B1
Experiment: exon inclusion enrichment index; higher = more inclusion; WT1 exon 5 minigene, HEK293

Variant | exon inclusion enrichment index
AGUGAUUCUCGGGAGCUCCAGCACAGUGAAAUGGACAGAAGGGCAGAGCAA | 1.22
AGUGAUAUAUGGGAGCUCCAGCACAGUGAAAUGGACAGAAGGGCAGAGCAA | 0.156
AGUGACUUUUGGGAGCUCCAGCACAGUGAAAUGGACAGAAGGGCAGAGCAA | 0.369
AGUGACCACCGGGAGCUCCAGCACAGUGAAAUGGACAGAAGGGCAGAGCAA | 3.1
AGUGCCUGCUGGGAGCUCCAGCACAGUGAAAUGGACAGAAGGGCAGAGCAA | 0.226
AGUGCAAGAAGGGAGCUCCAGCACAGUGAAAUGGACAGAAGGGCAGAGCAA | 0.624
AGUGCACGACGGGAGCUCCAGCACAGUGAAAUGGACAGAAGGGCAGAGCAA | 2.46
AGUGCACACAGGGAGCUCCAGCACAGUGAAAUGGACAGAAGGGCAGAGCAA | 0.0964
AGUGCGCGCCGGGAGCUCCAGCACAGUGAAAUGGACAGAAGGGCAGAGCAA | 0.681
AGUGCGGGAUGGGAGCUCCAGCACAGUGAAAUGGACAGAAGGGCAGAGCAA | 0.248
AGUGCUUCUCGGGAGCUCCAGCACAGUGAAAUGGACAGAAGGGCAGAGCAA | 1.14
AGUGCUAUAUGGGAGCUCCAGCACAGUGAAAUGGACAGAAGGGCAGAGCAA | 0.157
AGUGCCUUUUGGGAGCUCCAGCACAGUGAAAUGGACAGAAGGGCAGAGCAA | 0.642
AGUGCCCACCGGGAGCUCCAGCACAGUGAAAUGGACAGAAGGGCAGAGCAA | 1.75
AGUGUCUGCUGGGAGCUCCAGCACAGUGAAAUGGACAGAAGGGCAGAGCAA | 0.105
AGUGUAAGAAGGGAGCUCCAGCACAGUGAAAUGGACAGAAGGGCAGAGCAA | 0.0439
AGUGUACGACGGGAGCUCCAGCACAGUGAAAUGGACAGAAGGGCAGAGCAA | 2.56
AGUGUACACAGGGAGCUCCAGCACAGUGAAAUGGACAGAAGGGCAGAGCAA | 0.093
AGUGUGCGCCGGGAGCUCCAGCACAGUGAAAUGGACAGAAGGGCAGAGCAA | 0.917
AGUGUGGGAUGGGAGCUCCAGCACAGUGAAAUGGACAGAAGGGCAGAGCAA | 0.0442
AGUGUUUCUCGGGAGCUCCAGCACAGUGAAAUGGACAGAAGGGCAGAGCAA | 0.824
AGUGUUAUAUGGGAGCUCCAGCACAGUGAAAUGGACAGAAGGGCAGAGCAA | 0.0955
AGUGUCUUUUGGGAGCUCCAGCACAGUGAAAUGGACAGAAGGGCAGAGCAA | 0.267
AGUGUCCACCGGGAGCUCCAGCACAGUGAAAUGGACAGAAGGGCAGAGCAA | 2.16
AGUGGCUUUUGGGAGCUCCAGCACAGUGAAAUGGACAGAAGGGCAGAGCAA | 0.193
AGUGGCCACCGGGAGCUCCAGCACAGUGAAAUGGACAGAAGGGCAGAGCAA | 1.53

Variant | exon inclusion enrichment index
AGUUACUGCUGGGAGCUCCAGCACAGUGAAAUGGACAGAAGGGCAGAGCAA | 0.039
AGUUAAUGCUGGGAGCUCCAGCACAGUGAAAUGGACAGAAGGGCAGAGCAA | 0.0111
AGUUAAUGAUGGGAGCUCCAGCACAGUGAAAUGGACAGAAGGGCAGAGCAA | 0.239
AGUUAAUACCGGGAGCUCCAGCACAGUGAAAUGGACAGAAGGGCAGAGCAA | 0.811
AGUUAAUCUCGGGAGCUCCAGCACAGUGAAAUGGACAGAAGGGCAGAGCAA | 0.618
AGUUAAUUAUGGGAGCUCCAGCACAGUGAAAUGGACAGAAGGGCAGAGCAA | 0.0357
AGUUAAUUUUGGGAGCUCCAGCACAGUGAAAUGGACAGAAGGGCAGAGCAA | 0.0445
AGUUAAAGAUGGGAGCUCCAGCACAGUGAAAUGGACAGAAGGGCAGAGCAA | 0.386
AGUUAAAGAAGGGAGCUCCAGCACAGUGAAAUGGACAGAAGGGCAGAGCAA | 0.214
AGUUAAAACCGGGAGCUCCAGCACAGUGAAAUGGACAGAAGGGCAGAGCAA | 0.831
AGUUAAAUAUGGGAGCUCCAGCACAGUGAAAUGGACAGAAGGGCAGAGCAA | 0.0639
AGUUAACGAUGGGAGCUCCAGCACAGUGAAAUGGACAGAAGGGCAGAGCAA | 0.838
AGUUAACGACGGGAGCUCCAGCACAGUGAAAUGGACAGAAGGGCAGAGCAA | 2.47
AGUUAACACAGGGAGCUCCAGCACAGUGAAAUGGACAGAAGGGCAGAGCAA | 0.063
AGUUAACACCGGGAGCUCCAGCACAGUGAAAUGGACAGAAGGGCAGAGCAA | 1.79
AGUUAACUAUGGGAGCUCCAGCACAGUGAAAUGGACAGAAGGGCAGAGCAA | 0.165
AGUUAACGCCGGGAGCUCCAGCACAGUGAAAUGGACAGAAGGGCAGAGCAA | 2.4
AGUUAAGGAUGGGAGCUCCAGCACAGUGAAAUGGACAGAAGGGCAGAGCAA | 0.107
AGUUAAGACCGGGAGCUCCAGCACAGUGAAAUGGACAGAAGGGCAGAGCAA | 1.08
AGUUAAGUAUGGGAGCUCCAGCACAGUGAAAUGGACAGAAGGGCAGAGCAA | 0.0264
AGUUAGUGCUGGGAGCUCCAGCACAGUGAAAUGGACAGAAGGGCAGAGCAA | 0.00371
AGUUAGUGAUGGGAGCUCCAGCACAGUGAAAUGGACAGAAGGGCAGAGCAA | 0.036
AGUUAGUAAUGGGAGCUCCAGCACAGUGAAAUGGACAGAAGGGCAGAGCAA | 0.00571
AGUUAGUACCGGGAGCUCCAGCACAGUGAAAUGGACAGAAGGGCAGAGCAA | 0.184
AGUUAGUCAUGGGAGCUCCAGCACAGUGAAAUGGACAGAAGGGCAGAGCAA | 0.0264
AGUUAGUCUCGGGAGCUCCAGCACAGUGAAAUGGACAGAAGGGCAGAGCAA | 0.0763

Variant | exon inclusion enrichment index
AGUUAGUUAUGGGAGCUCCAGCACAGUGAAAUGGACAGAAGGGCAGAGCAA | 0.00122
AGUUAGUUUUGGGAGCUCCAGCACAGUGAAAUGGACAGAAGGGCAGAGCAA | 0.00331
AGUUAGAGAUGGGAGCUCCAGCACAGUGAAAUGGACAGAAGGGCAGAGCAA | 0.0497
AGUUAGAGAAGGGAGCUCCAGCACAGUGAAAUGGACAGAAGGGCAGAGCAA | 0.0116
AGUUAGAAAUGGGAGCUCCAGCACAGUGAAAUGGACAGAAGGGCAGAGCAA | 0.0263
AGUUAGAACCGGGAGCUCCAGCACAGUGAAAUGGACAGAAGGGCAGAGCAA | 0.237
AGUUAGACAUGGGAGCUCCAGCACAGUGAAAUGGACAGAAGGGCAGAGCAA | 0.0442
AGUUAGAUAUGGGAGCUCCAGCACAGUGAAAUGGACAGAAGGGCAGAGCAA | 0.00788
AGUUAGCGAUGGGAGCUCCAGCACAGUGAAAUGGACAGAAGGGCAGAGCAA | 0.117
AGUUAGCGACGGGAGCUCCAGCACAGUGAAAUGGACAGAAGGGCAGAGCAA | 0.602
AGUUAGCAAUGGGAGCUCCAGCACAGUGAAAUGGACAGAAGGGCAGAGCAA | 0.0448
AGUUAGCACAGGGAGCUCCAGCACAGUGAAAUGGACAGAAGGGCAGAGCAA | 0.00406
AGUUAGCACCGGGAGCUCCAGCACAGUGAAAUGGACAGAAGGGCAGAGCAA | 0.446
AGUUAGCCAUGGGAGCUCCAGCACAGUGAAAUGGACAGAAGGGCAGAGCAA | 0.0805
AGUUAGCUAUGGGAGCUCCAGCACAGUGAAAUGGACAGAAGGGCAGAGCAA | 0.0245
AGUUAGCGCCGGGAGCUCCAGCACAGUGAAAUGGACAGAAGGGCAGAGCAA | 0.952
AGUUAGGGCUGGGAGCUCCAGCACAGUGAAAUGGACAGAAGGGCAGAGCAA | 0.00284
AGUUAGGGAUGGGAGCUCCAGCACAGUGAAAUGGACAGAAGGGCAGAGCAA | 0.00225
AGUUAGGGAUGGGCGCUCCAGCACAGUGAAAUGGACAGAAGGGCAGAGCAA | 0.000759
AGUUAGGGAUGGGCACUCCAGCACAGUGAAAUGGACAGAAGGGCAGAGCAA | 0.000979
AGUUAGGGAUGGGCCCUCCAGCACAGUGAAAUGGACAGAAGGGCAGAGCAA | 0.000633
AGUUAGGGAUGGGCUCUCCAGCACAGUGAAAUGGACAGAAGGGCAGAGCAA | 0.000655
AGUUAGGGAUGGGGGCUCCAGCACAGUGAAAUGGACAGAAGGGCAGAGCAA | 0.00241
AGUUAGGGAUGGGGACUCCAGCACAGUGAAAUGGACAGAAGGGCAGAGCAA | 0.00342
AGUUAGGGAUGGGGCCUCCAGCACAGUGAAAUGGACAGAAGGGCAGAGCAA | 0.00222
AGUUAGGGAUGGGGUCUCCAGCACAGUGAAAUGGACAGAAGGGCAGAGCAA | 0.00301

Variant | exon inclusion enrichment index
AGUUAGGGAUGGGUGCUCCAGCACAGUGAAAUGGACAGAAGGGCAGAGCAA | 0.000641
AGUUAGGGAUGGGUACUCCAGCACAGUGAAAUGGACAGAAGGGCAGAGCAA | 0.000793
AGUUAGGGAUGGGUCCUCCAGCACAGUGAAAUGGACAGAAGGGCAGAGCAA | 0.00121
AGUUAGGGAUGGGUUCUCCAGCACAGUGAAAUGGACAGAAGGGCAGAGCAA | 0.000762
AGUUAGGGAUGGGAGCUCCCGCACAGUGAAAUGGACAGAAGGGCAGAGCAA | 0.00932
AGUUAGGGAUGGGAGCUCCCACACAGUGAAAUGGACAGAAGGGCAGAGCAA | 0.00106
AGUUAGGGAUGGGAGCUCCCCCACAGUGAAAUGGACAGAAGGGCAGAGCAA | 0.000907
AGUUAGGGAUGGGAGCUCCCUCACAGUGAAAUGGACAGAAGGGCAGAGCAA | 0.00104
AGUUAGGGAUGGGAGCUCCGGCACAGUGAAAUGGACAGAAGGGCAGAGCAA | 0.00245
AGUUAGGGAUGGGAGCUCCGACACAGUGAAAUGGACAGAAGGGCAGAGCAA | 0.00277
AGUUAGGGAUGGGAGCUCCGCCACAGUGAAAUGGACAGAAGGGCAGAGCAA | 0.00328
AGUUAGGGAUGGGAGCUCCGUCACAGUGAAAUGGACAGAAGGGCAGAGCAA | 0.00168
AGUUAGGGAUGGGAGCUCCUGCACAGUGAAAUGGACAGAAGGGCAGAGCAA | 0.00146
AGUUAGGGAUGGGAGCUCCUACACAGUGAAAUGGACAGAAGGGCAGAGCAA | 0.000815
AGUUAGGGAUGGGAGCUCCUCCACAGUGAAAUGGACAGAAGGGCAGAGCAA | 0.00185
AGUUAGGGAUGGGAGCUCCUUCACAGUGAAAUGGACAGAAGGGCAGAGCAA | 0.000871
AGUUAGGGAUGGGAGCUCCAGCCCAGUGAAAUGGACAGAAGGGCAGAGCAA | 0.00491
AGUUAGGGAUGGGAGCUCCAGCCAAGUGAAAUGGACAGAAGGGCAGAGCAA | 0.00335
AGUUAGGGAUGGGAGCUCCAGCCGAGUGAAAUGGACAGAAGGGCAGAGCAA | 0.0142
AGUUAGGGAUGGGAGCUCCAGCCUAGUGAAAUGGACAGAAGGGCAGAGCAA | 0.00192
AGUUAGGGAUGGGAGCUCCAGCGCAGUGAAAUGGACAGAAGGGCAGAGCAA | 0.00235
AGUUAGGGAUGGGAGCUCCAGCGAAGUGAAAUGGACAGAAGGGCAGAGCAA | 0.00158
AGUUAGGGAUGGGAGCUCCAGCGGAGUGAAAUGGACAGAAGGGCAGAGCAA | 0.0109
AGUUAGGGAUGGGAGCUCCAGCGUAGUGAAAUGGACAGAAGGGCAGAGCAA | 0.000891
